Results reported in patent US20120020912A1 (WISCONSIN ALUMNI RESEARCH FOUNDATION, published 2012).

These binders were tested against T1, HLA-A2 on T2 cells (human) (assay: T2 binding assay: T2 cells pulsed with 50 ug/mL peptide overnight, surface HLA-A2 by flow cytometry (BB7.2)).
T1 construct: whole, on cells; MHC class I molecule on T2 cells
Protocol: T2 Binding Assay: After passing T2 cells into fresh media the day before the assay, these cells were pulsed with 50 μg/mL peptide overnight at 37° C./5% CO₂.

Row | Binder | In Vitro HLA-A2 Expression (Relative Mean Flourescent Intensity)
1 | LLLFSIIPV (Synthetic 9-mer) [AR811 peptide] | 2.54 ratio to unloaded T2 cells
2 | RMLYFAPDLV (Synthetic 10-mer) [AR761 peptide] | 2.15 ratio to unloaded T2 cells
3 | LGERQLVHVV (Synthetic 10-mer derived from the AR LBD) [AR708 peptide] | 1.16 ratio to unloaded T2 cells
4 | VLEAIEPGV (Synthetic 9-mer derived from the AR LBD) [AR677 peptide] | 1.37 ratio to unloaded T2 cells
5 | KLLDSVQPI (Synthetic 9-mer derived from the AR LBD) [AR862 peptide] | 1.65 ratio to unloaded T2 cells
6 | QLTKLLDSV (Synthetic 9-mer) [AR859 peptide] | 1.33 ratio to unloaded T2 cells
7 | ALLSSLNEL (Synthetic 9-mer derived from the AR LBD) [AR700 peptide] | 2.66 ratio to unloaded T2 cells
8 | FLCMKALLL (Synthetic 9-mer) [AR805 peptide] | 2.19 ratio to unloaded T2 cells
9 | FSIIPVDGL (Synthetic 9-mer derived from the AR LBD) [AR814 peptide] | 1.01 ratio to unloaded T2 cells
10 | WMGLMVFAM (Synthetic 9-mer derived from the AR LBD) [AR742 peptide] | 1.32 ratio to unloaded T2 cells
